Source: PMC4379015, “Chemical and Thermal Unfolding of a Global Staphylococcal Virulence Regulator with a Flexible C-Terminal End” (PLoS ONE, 2015)

B1: rSarA (a C-terminally histidine-tagged SarA) (natural protein)
chain: MAITKINDCFELLSMVTYADKLKSLIKKEFSISFEEFAVLTYISENKEKEYYLKDIINHLNYKQPQVVKAVKILSQEDYFDKKRNEHDERTVLILVNAQQRKKIESLLSRVNKRITEANNEIEL
notes: the cloning attached eight additional residues at the C-terminal end of SarA; Leu 125 and Glu 126 of rSarA lie in the tag; also called recombinant SarA; not shown: His6 (eight additional residues including six histidine residues), C-terminal, kept

Tests used:
[1] = tested on: rSarA (Staphylococcus aureus strain Newman); test: EMSA; conditions: Gel shift buffer not stated (performed as reported earlier); rSarA kept in buffer A: 20 mM phosphate pH 8.0, 100 mM NaCl, 5% glycerol; binding temperature not …
[2] = biological target: the molecule itself; test: SEC; analytical gel filtration of rSarA (20 uM) without denaturant; apparent mass from the elution volumes of monomeric marker proteins

Molecule	K half [1]	stoichiometry N [2]
hla DNA	286 nM	–
B1	–	2
